According to patent US20040087777A1 (NEURALAB, published 2004):

Tests used:
[1] = biological target: T1, beta amyloid peptide (Aβ) (human, UniProt P05067 672-713, limits assumed); test: BIAcore
T1 construct: also called A-beta; β-amyloid peptide

[2] = biological target: T1, beta amyloid peptide (Aβ); test: average of ELISA and BIAcore results
[3] = biological target: T1, beta amyloid peptide (Aβ); test: ELISA competitive binding assay with biotinylated 3D6
… analog, Residue 8 = C = biological target: T2, … analog, Residue 8 = C; test: rNET
T2 peptide: DAEFRHDCGY

… analog, Residue 8 = H = biological target: T3, … analog, Residue 8 = H; test: rNET
T3 peptide: DAEFRHDHGY

… analog, Residue 8 = K = biological target: T4, … analog, Residue 8 = K; test: rNET
T4 peptide: DAEFRHDKGY

… analog, Residue 8 = N = biological target: T5, … analog, Residue 8 = N; test: rNET
T5 peptide: DAEFRHDNGY

… analog, Residue 8 = P = biological target: T6, … analog, Residue 8 = P; test: rNET
T6 peptide: DAEFRHDPGY

… analog, Residue 8 = R = biological target: T7, … analog, Residue 8 = R; test: rNET
T7 peptide: DAEFRHDRGY

… analog, Residue 1 = A = biological target: T8, … analog, Residue 1 = A; test: rNET
T8 peptide: AAEFRHDSGY

… analog, Residue 1 = C = biological target: T9, … analog, Residue 1 = C; test: rNET
T9 peptide: CAEFRHDSGY

… analog, Residue 1 = E = biological target: T10, … analog, Residue 1 = E; test: rNET
T10 peptide: EAEFRHDSGY

… analog, Residue 1 = F = biological target: T11, … analog, Residue 1 = F; test: rNET
T11 peptide: FAEFRHDSGY

… analog, Residue 1 = G = biological target: T12, … analog, Residue 1 = G; test: rNET
T12 peptide: GAEFRHDSGY

… analog, Residue 1 = H = biological target: T13, … analog, Residue 1 = H; test: rNET
T13 peptide: HAEFRHDSGY

… analog, Residue 1 = I = biological target: T14, … analog, Residue 1 = I; test: rNET
T14 peptide: IAEFRHDSGY

… analog, Residue 1 = K = biological target: T15, … analog, Residue 1 = K; test: rNET
T15 peptide: KAEFRHDSGY

… analog, Residue 1 = L = biological target: T16, … analog, Residue 1 = L; test: rNET
T16 peptide: LAEFRHDSGY

… analog, Residue 1 = M = biological target: T17, … analog, Residue 1 = M; test: rNET
T17 peptide: MAEFRHDSGY

… analog, Residue 1 = N = biological target: T18, … analog, Residue 1 = N; test: rNET
T18 peptide: NAEFRHDSGY

… analog, Residue 1 = P = biological target: T19, … analog, Residue 1 = P; test: rNET
T19 peptide: PAEFRHDSGY

… analog, Residue 1 = R = biological target: T20, … analog, Residue 1 = R; test: rNET
T20 peptide: RAEFRHDSGY

… analog, Residue 1 = S = biological target: T21, … analog, Residue 1 = S; test: rNET
T21 peptide: SAEFRHDSGY

… analog, Residue 1 = W = biological target: T22, … analog, Residue 1 = W; test: rNET
T22 peptide: WAEFRHDSGY

… analog, Residue 1 = Y = biological target: T23, … analog, Residue 1 = Y; test: rNET
T23 peptide: YAEFRHDSGY

… analog, Residue 2 = C = biological target: T24, … analog, Residue 2 = C; test: rNET
T24 peptide: DCEFRHDSGY

… analog, Residue 2 = D = biological target: T25, … analog, Residue 2 = D; test: rNET
T25 peptide: DDEFRHDSGY

… analog, Residue 2 = F = biological target: T26, … analog, Residue 2 = F; test: rNET
T26 peptide: DFEFRHDSGY

… analog, Residue 2 = G = biological target: T27, … analog, Residue 2 = G; test: rNET
T27 peptide: DGEFRHDSGY

… analog, Residue 2 = H = biological target: T28, … analog, Residue 2 = H; test: rNET
T28 peptide: DHEFRHDSGY

… analog, Residue 2 = I = biological target: T29, … analog, Residue 2 = I; test: rNET
T29 peptide: DIEFRHDSGY

… analog, Residue 2 = K = biological target: T30, … analog, Residue 2 = K; test: rNET
T30 peptide: DKEFRHDSGY

… analog, Residue 2 = N = biological target: T31, … analog, Residue 2 = N; test: rNET
T31 peptide: DNEFRHDSGY

… analog, Residue 2 = Q = biological target: T32, … analog, Residue 2 = Q; test: rNET
T32 peptide: DQEFRHDSGY

… analog, Residue 2 = R = biological target: T33, … analog, Residue 2 = R; test: rNET
T33 peptide: DREFRHDSGY

… analog, Residue 2 = T = biological target: T34, … analog, Residue 2 = T; test: rNET
T34 peptide: DTEFRHDSGY

… analog, Residue 3 = C = biological target: T35, … analog, Residue 3 = C; test: rNET
T35 peptide: DACFRHDSGY

… analog, Residue 3 = D = biological target: T36, … analog, Residue 3 = D; test: rNET
T36 peptide: DADFRHDSGY

… analog, Residue 3 = H = biological target: T37, … analog, Residue 3 = H; test: rNET
T37 peptide: DAHFRHDSGY

… analog, Residue 3 = I = biological target: T38, … analog, Residue 3 = I; test: rNET
T38 peptide: DAIFRHDSGY

… analog, Residue 3 = K = biological target: T39, … analog, Residue 3 = K; test: rNET
T39 peptide: DAKFRHDSGY

… analog, Residue 3 = L = biological target: T40, … analog, Residue 3 = L; test: rNET
T40 peptide: DALFRHDSGY

… analog, Residue 3 = M = biological target: T41, … analog, Residue 3 = M; test: rNET
T41 peptide: DAMFRHDSGY

… analog, Residue 3 = N = biological target: T42, … analog, Residue 3 = N; test: rNET
T42 peptide: DANFRHDSGY

… analog, Residue 3 = P = biological target: T43, … analog, Residue 3 = P; test: rNET
T43 peptide: DAPFRHDSGY

… analog, Residue 3 = Q = biological target: T44, … analog, Residue 3 = Q; test: rNET
T44 peptide: DAQFRHDSGY

… analog, Residue 3 = W = biological target: T45, … analog, Residue 3 = W; test: rNET
T45 peptide: DAWFRHDSGY

… analog, Residue 3 = Y = biological target: T46, … analog, Residue 3 = Y; test: rNET
T46 peptide: DAYFRHDSGY
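Throughout, for OD: antibody binding measured against single-substituted peptide analogs, each epitope position replaced by every one of 19 non-native amino acids, compared with binding to the native Aβ peptide.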

B1: humanized 3D6 version 1 (antibody, V domains shown)
VH: EVQLLESGGGLVQPGGSLRLSCAASGFTFSNYGMSWVRQAPGKGLEWVASIRSGGGRTYYSDNVKGRFTISRDNAKNSLYLQMNSLRAEDTALYYCVRYDHYSGSSDYWGQGTLVTVSS
VL: YVVMTQSPLSLPVTPGEPASISCKSSQSLLDSDGKTYLNWLLQKPGQSPQRLIYLVSKLDSGVPDRFSGSGSGTDFTLKISRVEAEDVGVYYCWQGTHFPRTFGQGTKVEIK
notes: Human constant regions (light chain vector pCMV-cK); also called humanized 3D6v1; h3D6v1
Question: For B1, which Kd [1] is on record?
Answer: The Kd was 2.06 nM.

Question: What about the koff [1] of the same binder?
Answer: Its koff is 0.000382 s⁻¹.

Question: And the kon [1]?
Answer: Its kon is 185000 M⁻¹ s⁻¹.

Question: What about the “fold loss of binding affinity against 3D6” value [2] of the same binder?
Answer: The value was about 3 fold.

Question: What about the “fold less binding affinity than 3D6” value [3] of the same binder?
Answer: Its value is about 6 fold.

B2: humanized 3D6 version 2 (antibody, V domains shown)
VH: EVQLLESGGGLVQPGGSLRLSCAASGFTFSNYGMSWVRQAPGKGLEWVASIRSGGGRTYYSDNVKGRFTISRDNSKNTLYLQMNSLRAEDTAVYYCVRYDHYSGSSDYWGQGTLVTVSS
VL: DVVMTQSPLSLPVTPGEPASISCKSSQSLLDSDGKTYLNWLLQKPGQSPQRLIYLVSKLDSGVPDRFSGSGSGTDFTLKISRVEAEDVGVYYCWQGTHFPRTFGQGTKVEIK
notes: also called humanized 3D6v2; h3D6v2
Question: What does the source list for B2?
Answer: OD (… analog, Residue 8 = C): 0.7 OD; OD (… analog, Residue 8 = H): 0.683 OD; OD (… analog, Residue 8 = K): 0.698 OD; OD (… analog, Residue 8 = N): 0.7 OD; OD (… analog, Residue 8 = P): 0.694 OD; OD (… analog, Residue 8 = R): 0.699 OD; OD (… analog, Residue 1 = A): 0.643 OD; OD (… analog, Residue 1 = C): 0.628 OD; OD (… analog, Residue 1 = E): 0.7 OD; OD (… analog, Residue 1 = F): 0.062 OD; OD (… analog, Residue 1 = G): 0.738 OD; OD (… analog, Residue 1 = H): 0.117 OD; OD (… analog, Residue 1 = I): 0.118 OD; OD (… analog, Residue 1 = K): 0.057 OD; OD (… analog, Residue 1 = L): 0.148 OD; OD (… analog, Residue 1 = M): 0.072 OD; OD (… analog, Residue 1 = N): 0.757 OD; OD (… analog, Residue 1 = P): 0.144 OD; OD (… analog, Residue 1 = R): 0.155 OD; OD (… analog, Residue 1 = S): 0.762 OD; OD (… analog, Residue 1 = W): 0.07 OD; OD (… analog, Residue 1 = Y): 0.498 OD; OD (… analog, Residue 2 = C): 0.694 OD; OD (… analog, Residue 2 = D): 0.222 OD; OD (… analog, Residue 2 = F): 0.717 OD; OD (… analog, Residue 2 = G): 0.72 OD; OD (… analog, Residue 2 = H): 0.741 OD; OD (… analog, Residue 2 = I): 0.722 OD; OD (… analog, Residue 2 = K): 0.722 OD; OD (… analog, Residue 2 = N): 0.735 OD; OD (… analog, Residue 2 = Q): 0.756 OD; OD (… analog, Residue 2 = R): 0.719 OD; OD (… analog, Residue 2 = T): 0.712 OD; OD (… analog, Residue 3 = C): 0.41 OD; OD (… analog, Residue 3 = D): 0.027 OD; OD (… analog, Residue 3 = H): 0.02 OD; OD (… analog, Residue 3 = I): 0.024 OD; OD (… analog, Residue 3 = K): 0.09 OD; OD (… analog, Residue 3 = L): 0.026 OD; OD (… analog, Residue 3 = M): 0.027 OD; OD (… analog, Residue 3 = N): 0.032 OD; OD (… analog, Residue 3 = P): 0.02 OD; OD (… analog, Residue 3 = Q): 0.406 OD; OD (… analog, Residue 3 = W): 0.304 OD; OD (… analog, Residue 3 = Y): 0.02 OD; Kd [1]: 2.24 nM
